{
  "source": "paper PMC9482650",
  "about": "“Quantitative fragmentomics allow affinity mapping of interactomes” (Nature Communications, 2022)",
  "assay_in_all_cases": "holdup assay",
  "parameters_in_all_cases": "key: below the threshold = too weak to quantify, mostly under pKd 3.1 to 4",
  "key": {"[1]": {"target": "T1, SNTG1, Q9NSN8", "T1 sequence (Q9NSN8 52-150, limits assumed, looked up)": "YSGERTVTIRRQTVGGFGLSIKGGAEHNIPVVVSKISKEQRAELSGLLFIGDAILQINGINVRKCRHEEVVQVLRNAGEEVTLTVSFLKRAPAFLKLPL"}, "[2]": {"target": "T2, NHERF3_4, Q5T2W1", "T2 sequence (Q5T2W1 373-468, limits assumed, looked up)": "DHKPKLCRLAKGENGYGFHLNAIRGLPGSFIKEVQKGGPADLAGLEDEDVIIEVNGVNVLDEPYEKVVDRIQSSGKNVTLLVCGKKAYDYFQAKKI"}, "[3]": {"target": "GRASP, Q7Z6J2", "sequence (Q7Z6J2 96-193)": "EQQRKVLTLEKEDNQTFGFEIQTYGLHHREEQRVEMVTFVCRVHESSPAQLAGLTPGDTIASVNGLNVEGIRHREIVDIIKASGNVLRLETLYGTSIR"}, "[4]": {"target": "T3, MPDZ_5, O75970", "T3 sequence (O75970 695-796, limits assumed, looked up)": "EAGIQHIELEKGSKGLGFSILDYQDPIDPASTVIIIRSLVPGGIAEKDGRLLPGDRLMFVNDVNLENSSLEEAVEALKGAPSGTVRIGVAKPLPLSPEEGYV"}, "[5]": {"target": "T4, SNTB1, Q13884", "T4 sequence (Q13884 107-205, limits assumed, looked up)": "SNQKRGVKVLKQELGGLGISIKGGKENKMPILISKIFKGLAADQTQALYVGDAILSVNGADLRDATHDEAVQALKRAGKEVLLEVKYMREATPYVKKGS"}, "[6]": {"target": "T5, LRRC7, Q96NW7", "T5 sequence (Q96NW7 1440-1537, limits assumed, looked up)": "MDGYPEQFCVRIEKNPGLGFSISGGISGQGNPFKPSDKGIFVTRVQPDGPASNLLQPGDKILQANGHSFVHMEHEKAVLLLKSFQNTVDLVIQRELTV"}, "[7]": {"target": "T6, LNX2_3, Q8N448", "T6 sequence (Q8N448 463-564, limits assumed, looked up)": "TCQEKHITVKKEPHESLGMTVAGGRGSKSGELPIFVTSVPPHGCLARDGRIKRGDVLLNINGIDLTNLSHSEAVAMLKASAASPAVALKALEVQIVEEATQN"}, "[8]": {"target": "TJP2_1, Q9UDY2", "sequence (Q9UDY2 24-128)": "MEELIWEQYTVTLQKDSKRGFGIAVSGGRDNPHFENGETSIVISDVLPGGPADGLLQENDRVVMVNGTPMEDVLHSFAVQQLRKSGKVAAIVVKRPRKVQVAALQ"}, "[9]": {"target": "PDZRN4_1, Q6ZMN7", "sequence (Q6ZMN7 213-318)": "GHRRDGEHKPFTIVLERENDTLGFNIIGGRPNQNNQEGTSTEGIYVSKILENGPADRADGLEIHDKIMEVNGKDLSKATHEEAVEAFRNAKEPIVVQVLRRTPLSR"}, "[10]": {"target": "MAGI2_6, Q86UL8", "sequence (Q86UL8 1141-1229)": "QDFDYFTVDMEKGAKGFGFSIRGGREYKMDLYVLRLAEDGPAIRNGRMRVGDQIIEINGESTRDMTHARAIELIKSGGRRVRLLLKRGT"}, "[11]": {"target": "T7, ARHGAP21, Q5T5U3", "T7 sequence (Q5T5U3 45-169, limits assumed, looked up)": "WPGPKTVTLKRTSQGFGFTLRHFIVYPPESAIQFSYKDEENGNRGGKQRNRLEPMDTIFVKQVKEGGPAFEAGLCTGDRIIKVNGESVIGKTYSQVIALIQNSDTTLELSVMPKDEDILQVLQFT"}, "[12]": {"target": "PICK1, Q9NRD5", "sequence (Q9NRD5 17-115)": "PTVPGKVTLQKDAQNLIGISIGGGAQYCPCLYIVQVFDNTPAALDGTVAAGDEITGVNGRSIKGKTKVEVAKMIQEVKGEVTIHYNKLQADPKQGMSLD"}, "[13]": {"target": "T8, LIN7A, O14910", "T8 sequence (O14910 103-200, limits assumed, looked up)": "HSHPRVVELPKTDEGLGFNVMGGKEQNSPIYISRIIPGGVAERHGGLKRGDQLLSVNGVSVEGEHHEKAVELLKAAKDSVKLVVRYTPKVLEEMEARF"}, "[14]": {"target": "Inadl_9, Q8NI35", "sequence (Q8NI35 1530-1615)": "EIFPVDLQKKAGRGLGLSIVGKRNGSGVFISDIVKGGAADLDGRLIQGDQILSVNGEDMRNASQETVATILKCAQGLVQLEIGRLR"}, "[15]": {"target": "IL16_4, Q14005", "sequence (Q14005 1229-1329)": "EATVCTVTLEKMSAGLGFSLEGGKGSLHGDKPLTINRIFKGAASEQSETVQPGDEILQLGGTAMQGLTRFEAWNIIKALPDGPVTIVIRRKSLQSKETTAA"}, "[16]": {"target": "T9, HTRA3, P83110", "T9 sequence (P83110 354-453, limits assumed, looked up)": "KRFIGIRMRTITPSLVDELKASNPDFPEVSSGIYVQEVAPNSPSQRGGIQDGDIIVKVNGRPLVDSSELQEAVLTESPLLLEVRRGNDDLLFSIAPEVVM"}, "[17]": {"target": "GRID2IP_1, A4D2P6", "sequence (A4D2P6 1-87)": "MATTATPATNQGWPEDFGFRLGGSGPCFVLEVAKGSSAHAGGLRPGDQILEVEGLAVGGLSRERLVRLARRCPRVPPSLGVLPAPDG"}, "[18]": {"target": "T10, GRIP1_5, Q9Y3R0", "T10 sequence (Q9Y3R0 568-668, limits assumed, looked up)": "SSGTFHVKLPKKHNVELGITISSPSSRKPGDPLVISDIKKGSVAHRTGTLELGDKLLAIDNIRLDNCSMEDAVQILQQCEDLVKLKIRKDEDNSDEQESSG"}, "[19]": {"target": "Inadl_1, Q8NI35", "sequence (Q8NI35 113-229)": "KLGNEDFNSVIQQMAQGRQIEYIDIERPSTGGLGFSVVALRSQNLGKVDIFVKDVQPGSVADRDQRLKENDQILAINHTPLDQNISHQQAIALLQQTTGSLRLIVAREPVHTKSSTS"}, "[20]": {"target": "AHNAK1, Q09666", "sequence (Q09666 4-100)": "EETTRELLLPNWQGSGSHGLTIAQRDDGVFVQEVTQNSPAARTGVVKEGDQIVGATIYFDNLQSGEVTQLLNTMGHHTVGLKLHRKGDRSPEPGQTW"}, "[21]": {"target": "T11, TIAM2, Q8IVF5", "T11 sequence (Q8IVF5 885-986, limits assumed, looked up)": "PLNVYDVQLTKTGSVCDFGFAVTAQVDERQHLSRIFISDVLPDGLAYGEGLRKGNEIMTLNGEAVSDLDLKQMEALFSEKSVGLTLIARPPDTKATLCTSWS"}, "[22]": {"target": "T12, LIN7B, Q9HAP6", "T12 sequence (Q9HAP6 88-185, limits assumed, looked up)": "T8 sequence (O14910 103-200, limits assumed, looked up) with S2A, V20I, I35V, E42D, H65Q, K77Q, D78G, K89R"}, "[23]": {"target": "T13, CARD11, Q9BXL7", "T13 sequence (Q9BXL7 662-765, limits assumed, looked up)": "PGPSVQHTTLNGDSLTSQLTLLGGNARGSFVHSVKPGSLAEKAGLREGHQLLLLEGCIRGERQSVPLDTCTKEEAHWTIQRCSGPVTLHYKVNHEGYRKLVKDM"}, "[24]": {"target": "MAGI1_1, Q96QZ7", "sequence (Q96QZ7 1-106)": "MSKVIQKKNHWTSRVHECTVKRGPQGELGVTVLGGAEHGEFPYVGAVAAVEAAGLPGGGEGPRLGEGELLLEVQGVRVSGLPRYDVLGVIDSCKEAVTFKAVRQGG"}, "[25]": {"conditions": "plain residues with an end cap or a label only (N-terminal biotin on a linker: ahx)"}, "[26]": {"conditions": "plain residues with an end cap or a label only (N-terminal biotin on a linker: ttds)"}},
  "note": "Positions count from the first letter of the chain named.",
  "data": [
    {"binder": "EKLSSIESDV", "note": "[GRIN2B, Q13224]", "values": [
      {"measurement": "pKd", "setting": "[1]; [25]", "value": 4.8},
      {"measurement": "pKd", "setting": "[2]; [25]", "value": "below the threshold"},
      {"measurement": "pKd", "setting": "[3]; [25]", "value": "below the threshold"},
      {"measurement": "pKd", "setting": "[4]; [25]", "value": "below the threshold"},
      {"measurement": "pKd", "setting": "[5]; [25]", "value": 4.46},
      {"measurement": "pKd", "setting": "[6]; [25]", "value": 3.63},
      {"measurement": "pKd", "setting": "[7]; [25]", "value": "below the threshold"},
      {"measurement": "pKd", "setting": "[8]; [25]", "value": "below the threshold"},
      {"measurement": "pKd", "setting": "[9]; [25]", "value": "below the threshold"},
      {"measurement": "pKd", "setting": "[10]; [25]", "value": 4.65},
      {"measurement": "pKd", "setting": "[11]; [25]", "value": 3.71},
      {"measurement": "pKd", "setting": "[12]; [25]", "value": "below the threshold"},
      {"measurement": "pKd", "setting": "[13]; [25]", "value": "below the threshold"},
      {"measurement": "pKd", "setting": "[14]; [25]", "value": "below the threshold"},
      {"measurement": "pKd", "setting": "[15]; [25]", "value": "below the threshold"},
      {"measurement": "pKd", "setting": "[16]; [25]", "value": "below the threshold"},
      {"measurement": "pKd", "setting": "[17]; [25]", "value": "below the threshold"},
      {"measurement": "pKd", "setting": "[18]; [25]", "value": "below the threshold"},
      {"measurement": "pKd", "setting": "[19]; [25]", "value": "below the threshold"},
      {"measurement": "pKd", "setting": "[20]; [25]", "value": "below the threshold"},
      {"measurement": "pKd", "setting": "[21]; [25]", "value": 3.71},
      {"measurement": "pKd", "setting": "[22]; [25]", "value": "below the threshold"},
      {"measurement": "pKd", "setting": "[23]; [25]", "value": "below the threshold"},
      {"measurement": "pKd", "setting": "[24]; [25]", "value": "below the threshold"}
    ]},
    {"binder": "IQREDQETAV", "note": "[DGKZ, Q13574]", "values": [
      {"measurement": "pKd", "setting": "[1]; [26]", "value": 5.4},
      {"measurement": "pKd", "setting": "[2]; [26]", "value": "below the threshold"},
      {"measurement": "pKd", "setting": "[3]; [26]", "value": 3.67},
      {"measurement": "pKd", "setting": "[4]; [26]", "value": "below the threshold"},
      {"measurement": "pKd", "setting": "[5]; [26]", "value": 5.29},
      {"measurement": "pKd", "setting": "[6]; [26]", "value": "below the threshold"},
      {"measurement": "pKd", "setting": "[7]; [26]", "value": "below the threshold"},
      {"measurement": "pKd", "setting": "[8]; [26]", "value": "below the threshold"},
      {"measurement": "pKd", "setting": "[9]; [26]", "value": 4.81},
      {"measurement": "pKd", "setting": "[10]; [26]", "value": 4.63},
      {"measurement": "pKd", "setting": "[11]; [26]", "value": "below the threshold"},
      {"measurement": "pKd", "setting": "[12]; [26]", "value": "below the threshold"},
      {"measurement": "pKd", "setting": "[13]; [26]", "value": "below the threshold"},
      {"measurement": "pKd", "setting": "[14]; [26]", "value": "below the threshold"},
      {"measurement": "pKd", "setting": "[15]; [26]", "value": "below the threshold"},
      {"measurement": "pKd", "setting": "[16]; [26]", "value": "below the threshold"},
      {"measurement": "pKd", "setting": "[17]; [26]", "value": "below the threshold"},
      {"measurement": "pKd", "setting": "[18]; [26]", "value": "below the threshold"},
      {"measurement": "pKd", "setting": "[19]; [26]", "value": "below the threshold"},
      {"measurement": "pKd", "setting": "[20]; [26]", "value": "below the threshold"},
      {"measurement": "pKd", "setting": "[21]; [26]", "value": "below the threshold"},
      {"measurement": "pKd", "setting": "[22]; [26]", "value": 4.09},
      {"measurement": "pKd", "setting": "[23]; [26]", "value": "below the threshold"},
      {"measurement": "pKd", "setting": "[24]; [26]", "value": "below the threshold"}
    ]},
    {"binder": "MERLRVETDV", "note": "[ARHGEF16, Q5VV41]", "values": [
      {"measurement": "pKd", "setting": "[1]; [26]", "value": 4.89},
      {"measurement": "pKd", "setting": "[2]; [26]", "value": "below the threshold"},
      {"measurement": "pKd", "setting": "[3]; [26]", "value": "below the threshold"},
      {"measurement": "pKd", "setting": "[4]; [26]", "value": 3.6},
      {"measurement": "pKd", "setting": "[5]; [26]", "value": 4.84},
      {"measurement": "pKd", "setting": "[6]; [26]", "value": 3.81},
      {"measurement": "pKd", "setting": "[7]; [26]", "value": "below the threshold"},
      {"measurement": "pKd", "setting": "[8]; [26]", "value": "below the threshold"},
      {"measurement": "pKd", "setting": "[9]; [26]", "value": 3.83},
      {"measurement": "pKd", "setting": "[10]; [26]", "value": 4.55},
      {"measurement": "pKd", "setting": "[11]; [26]", "value": 3.63},
      {"measurement": "pKd", "setting": "[12]; [26]", "value": "below the threshold"},
      {"measurement": "pKd", "setting": "[13]; [26]", "value": "below the threshold"},
      {"measurement": "pKd", "setting": "[14]; [26]", "value": "below the threshold"},
      {"measurement": "pKd", "setting": "[15]; [26]", "value": "below the threshold"},
      {"measurement": "pKd", "setting": "[16]; [26]", "value": "below the threshold"},
      {"measurement": "pKd", "setting": "[17]; [26]", "value": "below the threshold"},
      {"measurement": "pKd", "setting": "[18]; [26]", "value": "below the threshold"},
      {"measurement": "pKd", "setting": "[19]; [26]", "value": "below the threshold"},
      {"measurement": "pKd", "setting": "[20]; [26]", "value": 3.6},
      {"measurement": "pKd", "setting": "[21]; [26]", "value": "below the threshold"},
      {"measurement": "pKd", "setting": "[22]; [26]", "value": "below the threshold"},
      {"measurement": "pKd", "setting": "[23]; [26]", "value": "below the threshold"},
      {"measurement": "pKd", "setting": "[24]; [26]", "value": "below the threshold"}
    ]}
  ]
}
